T1: chicken interleukin 10 (chicken (Gallus gallus), UniProt Q6A2H4 22-174)
T1 construct: also called cIL-10; cIL10
T1 sequence: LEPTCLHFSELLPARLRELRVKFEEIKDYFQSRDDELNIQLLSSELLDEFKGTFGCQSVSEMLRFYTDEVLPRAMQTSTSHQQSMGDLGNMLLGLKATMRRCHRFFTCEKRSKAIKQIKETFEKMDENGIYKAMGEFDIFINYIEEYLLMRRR


Assays:
chicken interleukin 10 [1] = target: T1, chicken interleukin 10; assay: ELISA, sdAB titrated on cIL-10 coated plates
chicken interleukin 10 [2] = target: T1, chicken interleukin 10; assay: cell-based or functional assay

Binder | EC50 (chicken interleukin 10 [1]) | apparent EC50, recovery of IFN-γ secretion in primary chicken spleen cells treated with ConA and cIL-10 (chicken interleukin 10 [2])
chIL10sdAB1B9 (VHH, Llama single domain antibody; The construct used in the ELISA and the cell assay is not described) VHH: QVQLQESGGGLVQAGGSLRLSCAASGRTFSSYAWGWFRQAPGKEREFVARISFSGGHTYYSDSVKGRFTISRDNAKNTVYLQMNSLKPEDTAVYYCAADPTPYGLRNERNYPYWGQGTQVTVSS | ~35 nM | 40 nM
chIL10sdAB1H1 (VHH, Llama single domain antibody; The construct used in the ELISA is not described) VHH: QVQLQASGGGLVQAGGSLRLSCAASGRTFNSYAWGWFRQAPGKERGFVARISFSGGHTYYSDSVKGRFTISRDNAKNSVYLQMNSLKPEDTAVYYCAADPTPYGLRNERNYHYWGQGTQVTVSS | 20 nM | –
chIL10sdAB1D6 (VHH, Llama single domain antibody; The construct used in the ELISA is not described; also called 44-IL-bR2-1D6) VHH: QVQLQASGGGLVQAGGSLRLSCQASESISSINTMGWFRQASGEEREFVAAIESGGATAYAESAKGRFTISRDNAKNTVYLQMNSLKPEDTAVYYCAAGVPTYDDDAMPISWRFWGRGTLVTVSS | ~100 nM | –
chIL10sdAB1A11 (VHH, not shown: small tags and cut ends, Llama single domain antibody; also called 1A11 sdAB; 81-IL-bR2-1A11) VHH: QVQLQESGGGLVQPGGSLRLSCAASGNIFSINTMGWYRQAPGKQRELVASITTGGTTNYEDSVKGRFTISRDNAKKTVYLQMNRLKPEDTAVYYCNHRRSYSGRDYPVYGMDYWGKGTLVTVSS | ~1 nM | 25 nM
chIL10sdAB1F11 (VHH, not shown: small tags and cut ends, Llama single domain antibody; also called 86-IL-bR2-1F11) VHH: QVQLQEFGGGLVQPGGSLRLSCAASGRTGSSYAMGWFRQAPGKEREFVAAISWSGGSTDYADSVKGRFTISRDNAKNTMYLQMNSLKPEDTAVYYCAVDRNLFKLRVAVQEYTNLGQGTQVTVSS | ~15 nM | 60 nM

— patent US20240200089A1 (AGRIVIDA, published 2024)
